Measurements taken from patent US20210388087A1 (Chugai, published 2021).

What follows are binders tested against T1, CD3 epsilon homodimer protein (UniProt P07766 23-126) (assay: SPR, CD3 epsilon homodimer on chip, one-arm antibody as analyte;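 also: surface plasmon resonance at 25 °C with CD3 epsilon homodimer amine-coupled to a CM4 sensor chip, antibody injected as analyte, HBS-EP+ as running buffer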).
T1 construct: also called CD3 (CD3 epsilon)
T1 sequence (P07766 23-126): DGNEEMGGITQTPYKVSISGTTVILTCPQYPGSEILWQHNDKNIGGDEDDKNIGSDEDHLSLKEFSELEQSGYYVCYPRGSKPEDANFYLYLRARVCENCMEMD

KD ratio (KD of CE115HA000/KD of altered form) | Binder
0.61 | CE115HA000 G65E (antibody, human IgG1, kappa, L234A L235A, N297A, name in Kabat numbering, one-arm antibody) heavy: QVQLVESGGGVVQPGRSLRLSCAASGFTFSNAWMHWVRQAPGKGLEWVAQIKAKSNNYATYYAESVKERFTISRDDSKNSLYLQMNSLKTEDTAVYYCRYVHYGAYYGVDAWGQGTTVTVSSASTKGPSVFPLAPSSKSTSGGTAALGCLVKDYFPEPVTVSWNSGALTSGVHTFPAVLQSSGLYSLSSVVTVPSSSLGTQTYICNVNHKPSNTKVDKKVEPKSCDKTHTCPPCPAPEAAGGPSVFLFPPKPKDTLMISRTPEVTCVVVDVSHEDPEVKFNWYVDGVEVHNAKTKPREEQYASTYRVVSVLTVLHQDWLNGKEYKCKVSNKALPAPIEKTISKAKGQPREPQVYTLPPSRCELTKNQVSLSCAVKGFYPSDIAVEWESNGQPENNYKTTPPVLDSDGSFFLVSKLTVDKSRWQQGNVFSCSVMHEALHNHYTQKSLSLSPDYKDDDDK EPKSSDKTHTCPPCPAPELLGGPSVFLFPPKPKDTLMISRTPEVTCVVVDVSHEDPEVKFNWYVDGVEVHNAKTKPREEQYNSTYRVVSVLTVLHQDWLNGKEYKCKVSNKALPAPIEKTISKAKGQPREPQVCTLPPSRDELTKNQVSLWCLVKGFYPSDIAVEWESNGQPENNYKTTPPVLDSDGSFFLYSKLTVDKSRWQQGNVFSCSVMHEALHNRYTQKSLSLSP light: DIVMTQSPLSLPVTPGEPASISCRSSQSLVHSNRNTYLHWYQQKPGQAPRLLIYKVSNRFSGVPDRFSGSGSGTDFTLKISRVEAEDVGVYYCGQGTQVPYTFGQGTKLEIKRTVAAPSVFIFPPSDEQLKSGTASVVCLLNNFYPREAKVQWKVDNALQSGNSQESVTEQDSKDSTYSLSSTLTLSKADYEKHKVYACEVTHQGLSSPVTKSFNRGEC
1.14 | CE115HA000 G98H (antibody, human IgG1, kappa, L234A L235A, N297A, name in Kabat numbering, one-arm antibody) heavy: QVQLVESGGGVVQPGRSLRLSCAASGFTFSNAWMHWVRQAPGKGLEWVAQIKAKSNNYATYYAESVKGRFTISRDDSKNSLYLQMNSLKTEDTAVYYCRYVHYHAYYGVDAWGQGTTVTVSSASTKGPSVFPLAPSSKSTSGGTAALGCLVKDYFPEPVTVSWNSGALTSGVHTFPAVLQSSGLYSLSSVVTVPSSSLGTQTYICNVNHKPSNTKVDKKVEPKSCDKTHTCPPCPAPEAAGGPSVFLFPPKPKDTLMISRTPEVTCVVVDVSHEDPEVKFNWYVDGVEVHNAKTKPREEQYASTYRVVSVLTVLHQDWLNGKEYKCKVSNKALPAPIEKTISKAKGQPREPQVYTLPPSRCELTKNQVSLSCAVKGFYPSDIAVEWESNGQPENNYKTTPPVLDSDGSFFLVSKLTVDKSRWQQGNVFSCSVMHEALHNHYTQKSLSLSPDYKDDDDK EPKSSDKTHTCPPCPAPELLGGPSVFLFPPKPKDTLMISRTPEVTCVVVDVSHEDPEVKFNWYVDGVEVHNAKTKPREEQYNSTYRVVSVLTVLHQDWLNGKEYKCKVSNKALPAPIEKTISKAKGQPREPQVCTLPPSRDELTKNQVSLWCLVKGFYPSDIAVEWESNGQPENNYKTTPPVLDSDGSFFLYSKLTVDKSRWQQGNVFSCSVMHEALHNRYTQKSLSLSP light: DIVMTQSPLSLPVTPGEPASISCRSSQSLVHSNRNTYLHWYQQKPGQAPRLLIYKVSNRFSGVPDRFSGSGSGTDFTLKISRVEAEDVGVYYCGQGTQVPYTFGQGTKLEIKRTVAAPSVFIFPPSDEQLKSGTASVVCLLNNFYPREAKVQWKVDNALQSGNSQESVTEQDSKDSTYSLSSTLTLSKADYEKHKVYACEVTHQGLSSPVTKSFNRGEC
2.36 | CE115HA000 G98D (antibody, human IgG1, kappa, L234A L235A, N297A, name in Kabat numbering, one-arm antibody) heavy: QVQLVESGGGVVQPGRSLRLSCAASGFTFSNAWMHWVRQAPGKGLEWVAQIKAKSNNYATYYAESVKGRFTISRDDSKNSLYLQMNSLKTEDTAVYYCRYVHYDAYYGVDAWGQGTTVTVSSASTKGPSVFPLAPSSKSTSGGTAALGCLVKDYFPEPVTVSWNSGALTSGVHTFPAVLQSSGLYSLSSVVTVPSSSLGTQTYICNVNHKPSNTKVDKKVEPKSCDKTHTCPPCPAPEAAGGPSVFLFPPKPKDTLMISRTPEVTCVVVDVSHEDPEVKFNWYVDGVEVHNAKTKPREEQYASTYRVVSVLTVLHQDWLNGKEYKCKVSNKALPAPIEKTISKAKGQPREPQVYTLPPSRCELTKNQVSLSCAVKGFYPSDIAVEWESNGQPENNYKTTPPVLDSDGSFFLVSKLTVDKSRWQQGNVFSCSVMHEALHNHYTQKSLSLSPDYKDDDDK EPKSSDKTHTCPPCPAPELLGGPSVFLFPPKPKDTLMISRTPEVTCVVVDVSHEDPEVKFNWYVDGVEVHNAKTKPREEQYNSTYRVVSVLTVLHQDWLNGKEYKCKVSNKALPAPIEKTISKAKGQPREPQVCTLPPSRDELTKNQVSLWCLVKGFYPSDIAVEWESNGQPENNYKTTPPVLDSDGSFFLYSKLTVDKSRWQQGNVFSCSVMHEALHNRYTQKSLSLSP light: DIVMTQSPLSLPVTPGEPASISCRSSQSLVHSNRNTYLHWYQQKPGQAPRLLIYKVSNRFSGVPDRFSGSGSGTDFTLKISRVEAEDVGVYYCGQGTQVPYTFGQGTKLEIKRTVAAPSVFIFPPSDEQLKSGTASVVCLLNNFYPREAKVQWKVDNALQSGNSQESVTEQDSKDSTYSLSSTLTLSKADYEKHKVYACEVTHQGLSSPVTKSFNRGEC
0.98 | CE115HA000 G98A (antibody, human IgG1, kappa, L234A L235A, N297A, name in Kabat numbering, one-arm antibody) heavy: QVQLVESGGGVVQPGRSLRLSCAASGFTFSNAWMHWVRQAPGKGLEWVAQIKAKSNNYATYYAESVKGRFTISRDDSKNSLYLQMNSLKTEDTAVYYCRYVHYAAYYGVDAWGQGTTVTVSSASTKGPSVFPLAPSSKSTSGGTAALGCLVKDYFPEPVTVSWNSGALTSGVHTFPAVLQSSGLYSLSSVVTVPSSSLGTQTYICNVNHKPSNTKVDKKVEPKSCDKTHTCPPCPAPEAAGGPSVFLFPPKPKDTLMISRTPEVTCVVVDVSHEDPEVKFNWYVDGVEVHNAKTKPREEQYASTYRVVSVLTVLHQDWLNGKEYKCKVSNKALPAPIEKTISKAKGQPREPQVYTLPPSRCELTKNQVSLSCAVKGFYPSDIAVEWESNGQPENNYKTTPPVLDSDGSFFLVSKLTVDKSRWQQGNVFSCSVMHEALHNHYTQKSLSLSPDYKDDDDK EPKSSDKTHTCPPCPAPELLGGPSVFLFPPKPKDTLMISRTPEVTCVVVDVSHEDPEVKFNWYVDGVEVHNAKTKPREEQYNSTYRVVSVLTVLHQDWLNGKEYKCKVSNKALPAPIEKTISKAKGQPREPQVCTLPPSRDELTKNQVSLWCLVKGFYPSDIAVEWESNGQPENNYKTTPPVLDSDGSFFLYSKLTVDKSRWQQGNVFSCSVMHEALHNRYTQKSLSLSP light: DIVMTQSPLSLPVTPGEPASISCRSSQSLVHSNRNTYLHWYQQKPGQAPRLLIYKVSNRFSGVPDRFSGSGSGTDFTLKISRVEAEDVGVYYCGQGTQVPYTFGQGTKLEIKRTVAAPSVFIFPPSDEQLKSGTASVVCLLNNFYPREAKVQWKVDNALQSGNSQESVTEQDSKDSTYSLSSTLTLSKADYEKHKVYACEVTHQGLSSPVTKSFNRGEC
